Assay results taken from patent US20140271478A1 (University of California, published 2014).
Where a chain is given by its changes, count along the chain named.

B1: 4F1 antibody (antibody, V domains shown)
VH: QVQLQQSGAELVRPGTSVKVSCKASGYAFTNYLIEWVKQRPGQGLEWIGVINPGTGGTNYNKKFKVKATLTADKSSSTAYMQLGGLTFDDSAVYFCAREGNARTYYYAMDYWGQGTSVTVSS
VL: DIEMTQTPASLSASVGETVTITCRASENIYSYLVWYQQKQGKSPQVLVYNAKTLAEGVPSRFSGSGSGTQFSLKINSLQPEDFGSYYCQHHNGTPYTFGGGTKLEIKR
notes: Hybridoma antibody; also called hybridoma clone 4F1
B2: 6B9 antibody (antibody, V domains shown)
VH: QVQLQQSGAELVRPGTSVKVSCKASGYAFTDYLIEWVKQRPGQGLEWIGVINPETGGTNYNAKFKGKATLTADKSSSSAYMQLSSLTSGDSAVYFCAREAGNYIYAMDYWGQGTSVTVSS
VL: B1 VL with E3Q, T7S, E27V, V46L, Y49H, N92H
notes: Hybridoma antibody; also called hybridoma clone 6B9

Columns and labels:
mouse integrin β8 [1] = target: T1, mouse integrin β8 (mouse, UniProt Q0VBD0 22-767); assay: cell surface staining, flow cytometry
T1 construct: whole, on cells; also called mouse β8; itgb8
T1 sequence (looked up): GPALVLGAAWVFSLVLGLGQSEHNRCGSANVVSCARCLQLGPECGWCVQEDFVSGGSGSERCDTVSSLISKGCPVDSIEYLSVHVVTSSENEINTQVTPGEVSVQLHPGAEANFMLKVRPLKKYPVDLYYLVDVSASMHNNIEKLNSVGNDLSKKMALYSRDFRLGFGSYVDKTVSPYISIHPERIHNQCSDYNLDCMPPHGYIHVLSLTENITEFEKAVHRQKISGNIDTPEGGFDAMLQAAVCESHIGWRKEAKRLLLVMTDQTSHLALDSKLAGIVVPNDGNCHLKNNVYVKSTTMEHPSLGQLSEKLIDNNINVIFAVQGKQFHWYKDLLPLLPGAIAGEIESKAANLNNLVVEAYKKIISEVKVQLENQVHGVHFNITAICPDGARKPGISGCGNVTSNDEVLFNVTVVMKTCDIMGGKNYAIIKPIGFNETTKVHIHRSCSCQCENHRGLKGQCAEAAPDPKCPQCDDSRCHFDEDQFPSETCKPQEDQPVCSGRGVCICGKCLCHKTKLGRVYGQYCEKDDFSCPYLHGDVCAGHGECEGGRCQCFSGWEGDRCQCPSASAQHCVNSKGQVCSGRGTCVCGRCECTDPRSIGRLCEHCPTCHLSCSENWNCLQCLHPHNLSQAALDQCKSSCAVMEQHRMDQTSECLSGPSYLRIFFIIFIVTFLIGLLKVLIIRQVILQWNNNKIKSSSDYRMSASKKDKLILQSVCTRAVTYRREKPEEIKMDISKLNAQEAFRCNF

mouse integrin β8 [2] = target: T1, mouse integrin β8; assay: flow cytometry, cell surface staining of β8 amino acid swap constructs
[3] = target: T2, human integrin β8 swap construct V R I N S (SEQ ID NO:124) (human, UniProt P26012 43-769); assay: as above
T2 sequence: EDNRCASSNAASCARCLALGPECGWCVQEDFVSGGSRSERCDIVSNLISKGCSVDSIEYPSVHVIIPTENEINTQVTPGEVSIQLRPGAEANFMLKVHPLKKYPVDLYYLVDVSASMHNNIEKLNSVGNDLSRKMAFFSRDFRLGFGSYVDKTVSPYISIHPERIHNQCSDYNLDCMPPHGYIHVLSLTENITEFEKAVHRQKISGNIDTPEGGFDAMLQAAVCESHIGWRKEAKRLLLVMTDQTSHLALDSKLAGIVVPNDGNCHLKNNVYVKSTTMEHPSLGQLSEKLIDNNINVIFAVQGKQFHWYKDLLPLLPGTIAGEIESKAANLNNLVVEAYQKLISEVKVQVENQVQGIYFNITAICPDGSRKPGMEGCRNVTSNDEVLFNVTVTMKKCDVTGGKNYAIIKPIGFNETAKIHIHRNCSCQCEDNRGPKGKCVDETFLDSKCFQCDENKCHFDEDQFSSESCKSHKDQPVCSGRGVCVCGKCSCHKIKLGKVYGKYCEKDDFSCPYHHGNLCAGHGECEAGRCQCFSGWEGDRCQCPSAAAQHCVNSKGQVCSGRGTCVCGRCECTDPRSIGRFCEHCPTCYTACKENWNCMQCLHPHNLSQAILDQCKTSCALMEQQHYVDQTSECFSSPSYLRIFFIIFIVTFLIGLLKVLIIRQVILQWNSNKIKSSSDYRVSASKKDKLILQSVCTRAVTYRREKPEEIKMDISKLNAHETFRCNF

[4] = target: T3, human integrin β8 swap construct I G I N P (SEQ ID NO:125) (human, UniProt P26012 43-769); assay: as above
T3 sequence: T2 sequence with V32I, R37G, S53P

[5] = target: T4, human integrin β8 swap construct I G I N S (SEQ ID NO:126) (human, UniProt P26012 43-769); assay: as above
T4 sequence: T2 sequence with V32I, R37G

[6] = target: T5, human integrin αβ8 (αvβ8) expressed on cells (human, UniProt P06756 31-1048); assay: as above
T5 construct: whole, on cells; β8 transfected into or endogenous on cells, unfixed or formalin fixed; also called human integrin β8; ITGB8
T5 sequence (P06756 31-1048): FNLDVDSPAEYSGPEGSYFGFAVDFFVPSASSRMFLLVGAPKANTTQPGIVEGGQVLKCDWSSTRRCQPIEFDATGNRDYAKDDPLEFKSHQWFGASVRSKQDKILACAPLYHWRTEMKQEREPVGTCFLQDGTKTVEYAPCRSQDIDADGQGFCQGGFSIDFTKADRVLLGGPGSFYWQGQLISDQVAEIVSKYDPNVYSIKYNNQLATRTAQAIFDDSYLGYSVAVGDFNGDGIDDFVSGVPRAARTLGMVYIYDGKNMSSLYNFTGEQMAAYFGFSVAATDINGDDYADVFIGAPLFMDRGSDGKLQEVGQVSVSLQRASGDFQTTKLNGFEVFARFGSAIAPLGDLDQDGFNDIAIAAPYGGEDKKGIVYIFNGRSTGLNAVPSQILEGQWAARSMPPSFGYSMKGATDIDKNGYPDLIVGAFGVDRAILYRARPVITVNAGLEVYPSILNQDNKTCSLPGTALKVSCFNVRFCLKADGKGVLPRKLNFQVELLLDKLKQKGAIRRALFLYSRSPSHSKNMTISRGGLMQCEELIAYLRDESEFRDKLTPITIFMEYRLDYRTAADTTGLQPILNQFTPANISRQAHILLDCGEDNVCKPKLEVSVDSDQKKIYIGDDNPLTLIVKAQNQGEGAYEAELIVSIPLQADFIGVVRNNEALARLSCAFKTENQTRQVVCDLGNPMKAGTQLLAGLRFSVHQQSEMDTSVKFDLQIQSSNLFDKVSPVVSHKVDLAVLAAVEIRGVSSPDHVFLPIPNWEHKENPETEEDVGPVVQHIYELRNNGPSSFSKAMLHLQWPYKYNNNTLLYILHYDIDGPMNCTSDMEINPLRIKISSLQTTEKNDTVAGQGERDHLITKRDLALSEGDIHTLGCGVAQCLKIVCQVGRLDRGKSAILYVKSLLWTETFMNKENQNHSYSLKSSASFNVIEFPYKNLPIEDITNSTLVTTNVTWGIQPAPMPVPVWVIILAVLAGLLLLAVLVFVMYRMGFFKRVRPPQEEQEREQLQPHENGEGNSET

Row | Binder | binding result (mouse integrin β8 [1]) | % positive (mouse integrin β8 [2]) [%] | % positive [3] [%] | % positive [4] [%] | % positive [5] [%] | % positive [6] [%]
1 | B1 | no binding | 3 | 92 | 0 | 101 | 100
2 | B2 | no binding | 6 | 102 | 1 | 104 | 100
